Holding throughout (assay): holdup assay
What all share (set-up): key: below the threshold = too weak to quantify, mostly under pKd 3.1 to 4

One assay deals with T1, PDZD8, Q8NEN9.
T1 sequence (Q8NEN9 361-459, limits assumed, looked up): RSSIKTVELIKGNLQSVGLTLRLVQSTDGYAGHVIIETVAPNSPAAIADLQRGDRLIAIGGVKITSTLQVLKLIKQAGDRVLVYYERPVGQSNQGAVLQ
To be noted: plain residues with an end cap or a label only (N-terminal biotin on a linker: ttds).

The next assay has as its target T2, APBA3_2, O96018.
T2 sequence (O96018 480-570, limits assumed, looked up): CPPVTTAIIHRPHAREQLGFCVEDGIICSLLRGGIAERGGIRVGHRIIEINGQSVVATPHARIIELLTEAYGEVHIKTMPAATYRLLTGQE
To be noted: plain residues with an end cap or a label only (N-terminal biotin on a linker: ttds).

The target in a further assay is T3, MAGI2_1, Q86UL8.
T3 sequence (Q86UL8 12-111, limits assumed, looked up): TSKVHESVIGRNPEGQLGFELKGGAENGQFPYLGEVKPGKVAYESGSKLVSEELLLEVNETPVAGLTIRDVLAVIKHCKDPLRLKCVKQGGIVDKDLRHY
Particulars: plain residues with an end cap or a label only (N-terminal biotin on a linker: ttds).

Another assay has as its target PTPN13_2, Q12923. To be noted: plain residues with an end cap or a label only (N-terminal biotin on a linker: ttds).
The target in another assay is MAGI3_6, Q5TCQ9. Particulars: plain residues with an end cap or a label only (N-terminal biotin on a linker: ttds).
The target in another assay is MAST3, O60307. To be noted: plain residues with an end cap or a label only (N-terminal biotin on a linker: ttds).
In the next assay the target is T4, MPDZ_2, O75970.
T4 sequence (O75970 252-347, limits assumed, looked up): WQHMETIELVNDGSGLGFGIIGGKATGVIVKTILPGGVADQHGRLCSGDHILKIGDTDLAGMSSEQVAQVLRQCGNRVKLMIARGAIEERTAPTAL
Particulars: plain residues with an end cap or a label only (N-terminal biotin on a linker: ttds).

The target of another assay is T5, DVL1, O14640.
T5 sequence (O14640 246-333, limits assumed, looked up): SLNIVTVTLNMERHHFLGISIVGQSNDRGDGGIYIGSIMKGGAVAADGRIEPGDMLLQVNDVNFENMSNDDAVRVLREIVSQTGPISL
To be noted: plain residues with an end cap or a label only (N-terminal biotin on a linker: ttds).

The next assay addresses PARD3_1, Q8TEW0. Particulars: plain residues with an end cap or a label only (N-terminal biotin on a linker: ttds).
Another assay addresses SDCBP_1, O00560. Particulars: plain residues with an end cap or a label only (N-terminal biotin on a linker: ttds).
The target of the next assay is T6, PCLO, Q9Y6V0.
T6 sequence (Q9Y6V0 4491-4600, limits assumed, looked up): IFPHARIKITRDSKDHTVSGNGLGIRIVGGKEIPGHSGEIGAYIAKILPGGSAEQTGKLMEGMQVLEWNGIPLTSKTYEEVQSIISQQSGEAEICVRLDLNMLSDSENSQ

A further assay has as its target MAGI3_3, Q5TCQ9. To be noted: plain residues with an end cap or a label only (N-terminal biotin on a linker: ttds).
A further assay has as its target T7, MPDZ_12, O75970.
T7 sequence (O75970 1857-1958, limits assumed, looked up): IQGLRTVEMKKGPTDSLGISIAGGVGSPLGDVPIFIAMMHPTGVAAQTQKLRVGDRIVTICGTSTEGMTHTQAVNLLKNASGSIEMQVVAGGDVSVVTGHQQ

The target of the next assay is TJP1_3, Q07157.
The next assay deals with T8, MPP5, Q8N3R9.
T8 sequence (Q8N3R9 251-346, limits assumed, looked up): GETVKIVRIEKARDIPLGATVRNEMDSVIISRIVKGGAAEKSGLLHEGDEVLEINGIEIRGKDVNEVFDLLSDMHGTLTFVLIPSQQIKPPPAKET
Particulars: plain residues with an end cap or a label only (N-terminal biotin on a linker: ttds).

Another assay deals with T9, SHROOM3, Q8TF72.
T9 sequence (Q8TF72 20-120, limits assumed, looked up): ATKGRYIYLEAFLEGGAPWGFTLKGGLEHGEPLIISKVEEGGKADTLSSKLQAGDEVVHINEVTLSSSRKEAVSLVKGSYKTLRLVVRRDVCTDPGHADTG
To be noted: plain residues with an end cap or a label only (N-terminal biotin on a linker: ttds).

The next assay addresses T10, SHROOM2, Q13796.
T10 sequence (Q13796 21-118, limits assumed, looked up): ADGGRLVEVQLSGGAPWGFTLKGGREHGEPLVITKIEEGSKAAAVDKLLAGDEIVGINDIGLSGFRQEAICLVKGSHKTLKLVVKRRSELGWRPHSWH
To be noted: plain residues with an end cap or a label only (N-terminal biotin on a linker: ttds).

The target of another assay is Inadl_7, Q8NI35. To be noted: plain residues with an end cap or a label only (N-terminal biotin on a linker: ttds).
The next assay addresses MAGI3_5, Q5TCQ9. Particulars: plain residues with an end cap or a label only (N-terminal biotin on a linker: ttds).
For a further assay, the target named is T11, PDZD4, Q76G19.
T11 sequence (Q76G19 125-224, limits assumed, looked up): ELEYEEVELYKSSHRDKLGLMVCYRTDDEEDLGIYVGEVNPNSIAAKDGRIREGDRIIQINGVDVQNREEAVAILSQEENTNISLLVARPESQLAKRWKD
Particulars: plain residues with an end cap or a label only (N-terminal biotin on a linker: ttds).

A further assay addresses NHERF4_3, Q86UT5. Particulars: plain residues with an end cap or a label only (N-terminal biotin on a linker: ttds).
The target of another assay is T12, PTPN4, P29074.
T12 sequence (P29074 512-599, limits assumed, looked up): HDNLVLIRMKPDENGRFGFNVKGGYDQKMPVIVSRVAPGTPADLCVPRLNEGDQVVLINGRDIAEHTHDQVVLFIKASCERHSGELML
Particulars: plain residues with an end cap or a label only (N-terminal biotin on a linker: ttds).

For the next assay, the target named is GRIP2_2, Q9C0E4. To be noted: plain residues with an end cap or a label only (N-terminal biotin on a linker: ttds).
Another assay concerns the target PDZD9, Q8IXQ8. Particulars: plain residues with an end cap or a label only (N-terminal biotin on a linker: ttds).
Another assay has as its target RIMS2, Q9UQ26. Particulars: plain residues with an end cap or a label only (N-terminal biotin on a linker: ttds).
Where [1] appears, read: plain residues with an end cap or a label only (N-terminal biotin on a linker: ttds).
The mark [2] stands for this setting: plain residues with an end cap or a label only (N-terminal biotin on a linker: ahx).
Where [3] appears, read: plain residues with an end cap or a label only (N-terminal biotin on a linker: ado-ado).

NHERF4_3, Q86UT5, sequence (Q86UT5 325-412): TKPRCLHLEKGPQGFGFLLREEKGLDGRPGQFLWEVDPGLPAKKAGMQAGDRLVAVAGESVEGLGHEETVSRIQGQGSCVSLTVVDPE
SDCBP_1, O00560, sequence (O00560 111-198): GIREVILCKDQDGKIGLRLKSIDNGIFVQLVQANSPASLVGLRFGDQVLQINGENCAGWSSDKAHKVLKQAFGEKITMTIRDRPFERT
MAST3, O60307, sequence (O60307 945-1048): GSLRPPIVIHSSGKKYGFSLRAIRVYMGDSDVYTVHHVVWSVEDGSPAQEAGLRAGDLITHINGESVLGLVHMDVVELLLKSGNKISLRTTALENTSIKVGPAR
PTPN13_2, Q12923, sequence (Q12923 1363-1462): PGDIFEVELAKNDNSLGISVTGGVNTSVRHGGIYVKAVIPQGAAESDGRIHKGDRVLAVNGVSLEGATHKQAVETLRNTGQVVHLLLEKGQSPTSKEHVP
Inadl_7, Q8NI35, sequence (Q8NI35 1219-1332): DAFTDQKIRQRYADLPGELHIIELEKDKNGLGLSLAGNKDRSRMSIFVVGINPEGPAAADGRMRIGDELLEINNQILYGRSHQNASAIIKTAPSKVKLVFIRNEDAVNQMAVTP
MAGI3_6, Q5TCQ9, sequence (Q5TCQ9 1014-1103): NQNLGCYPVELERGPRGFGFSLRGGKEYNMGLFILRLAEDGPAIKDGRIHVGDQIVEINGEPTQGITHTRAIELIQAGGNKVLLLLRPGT
TJP1_3, Q07157, sequence (Q07157 416-512): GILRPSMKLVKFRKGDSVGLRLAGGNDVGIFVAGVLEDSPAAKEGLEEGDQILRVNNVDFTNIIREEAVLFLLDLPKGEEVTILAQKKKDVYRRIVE
MAGI3_5, Q5TCQ9, sequence (Q5TCQ9 847-941): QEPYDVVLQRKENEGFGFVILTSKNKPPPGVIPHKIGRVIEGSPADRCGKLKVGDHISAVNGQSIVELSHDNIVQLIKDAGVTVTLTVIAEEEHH
MAGI3_3, Q5TCQ9, sequence (Q5TCQ9 572-655): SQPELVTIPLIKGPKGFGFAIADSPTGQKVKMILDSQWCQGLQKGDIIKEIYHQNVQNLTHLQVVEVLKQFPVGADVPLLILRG
PARD3_1, Q8TEW0, sequence (Q8TEW0 264-372): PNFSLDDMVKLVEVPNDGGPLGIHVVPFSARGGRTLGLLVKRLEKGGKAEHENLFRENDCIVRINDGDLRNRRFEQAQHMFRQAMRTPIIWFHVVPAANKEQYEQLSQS
GRIP2_2, Q9C0E4, sequence (Q9C0E4 137-245): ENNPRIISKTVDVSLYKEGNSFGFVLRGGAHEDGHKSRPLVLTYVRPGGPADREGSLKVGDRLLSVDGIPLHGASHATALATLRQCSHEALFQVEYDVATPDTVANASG
PDZD9, Q8IXQ8, sequence (Q8IXQ8 23-120): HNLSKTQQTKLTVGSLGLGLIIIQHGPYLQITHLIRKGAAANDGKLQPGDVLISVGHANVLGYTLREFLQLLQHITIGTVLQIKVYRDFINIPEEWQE
RIMS2, Q9UQ26, sequence (Q9UQ26 637-758): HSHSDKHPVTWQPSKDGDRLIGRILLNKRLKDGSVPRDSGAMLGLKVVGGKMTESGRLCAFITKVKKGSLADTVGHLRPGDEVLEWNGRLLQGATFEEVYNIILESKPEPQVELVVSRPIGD

Turning to TGDTLEKFVEGL [CBP, Q92793], the pKd entry with PDZD8, Q8NEN9 was “below the threshold”; in the assay with APBA3_2, O96018 it was 3.95; in the assay with MAGI2_1, Q86UL8 it was “below the threshold”; with PTPN13_2, Q12923, “below the threshold”; in the assay with MAGI3_6, Q5TCQ9, “below the threshold”; with MAST3, O60307 it was “below the threshold”. Also, the pKd result was “below the threshold” in the assay with MPDZ_2, O75970; “below the threshold” with DVL1, O14640; “below the threshold” in the assay with PARD3_1, Q8TEW0; “below the threshold” in the assay with SDCBP_1, O00560; “below the threshold” with PCLO, Q9Y6V0 (setting [1]); “below the threshold” in the assay with MAGI3_3, Q5TCQ9. In addition, the pKd entry with MPDZ_12, O75970 (setting [1]) was “below the threshold”; with TJP1_3, Q07157 (setting [1]) it was “below the threshold”; in the assay with MPP5, Q8N3R9 it was “below the threshold”; with SHROOM3, Q8TF72, “below the threshold”; in the assay with SHROOM2, Q13796 it was 3.83; with Inadl_7, Q8NI35 it was “below the threshold”. For the same molecule, the pKd result with MAGI3_5, Q5TCQ9 is “below the threshold”; with PDZD4, Q76G19 it was “below the threshold”; in the assay with NHERF4_3, Q86UT5, 3.86; with PTPN4, P29074 it was “below the threshold”.
As to SRRPRTETQV [HPV31-E6, P17386], the pKd result with PCLO, Q9Y6V0 (setting [1]) is “below the threshold”; in the assay with MPDZ_12, O75970 (setting [1]), “below the threshold”; in the assay with TJP1_3, Q07157 (setting [1]) it was “below the threshold”.
With GIFPTLTSPL [SHROOM3, Q8TF72], the pKd entry in the assay with PCLO, Q9Y6V0 (setting [2]) is “below the threshold”; with MPDZ_12, O75970 (setting [2]), “below the threshold”; with TJP1_3, Q07157 (setting [2]), “below the threshold”.
CLDTSRETDL [KCNA5, P22460]: the pKd entry is “below the threshold” with PDZD8, Q8NEN9; “below the threshold” with APBA3_2, O96018; “below the threshold” in the assay with MAGI2_1, Q86UL8; “below the threshold” in the assay with PTPN13_2, Q12923; 4.34 with MAGI3_6, Q5TCQ9; “below the threshold” in the assay with MAST3, O60307. Further, the pKd entry in the assay with MPDZ_2, O75970 is “below the threshold”; in the assay with DVL1, O14640 it was “below the threshold”; in the assay with GRIP2_2, Q9C0E4 it was “below the threshold”; with PARD3_1, Q8TEW0, “below the threshold”; with SDCBP_1, O00560, “below the threshold”; in the assay with PCLO, Q9Y6V0 (setting [1]), “below the threshold”. Also, the pKd entry with MAGI3_3, Q5TCQ9 is given as “below the threshold”; in the assay with MPDZ_12, O75970 (setting [1]) it was “below the threshold”; in the assay with PDZD9, Q8IXQ8, “below the threshold”; with TJP1_3, Q07157 (setting [1]) it was “below the threshold”; with MPP5, Q8N3R9 it was “below the threshold”; with SHROOM3, Q8TF72, “below the threshold”. In addition, the pKd with SHROOM2, Q13796 was 4.22; in the assay with Inadl_7, Q8NI35, “below the threshold”; in the assay with MAGI3_5, Q5TCQ9 it was “below the threshold”; with RIMS2, Q9UQ26, “below the threshold”; in the assay with PDZD4, Q76G19, “below the threshold”; in the assay with NHERF4_3, Q86UT5, “below the threshold”. The molecule also had a pKd with PTPN4, P29074 of 4.07.
Regarding GKKSVKHSKI [ACOT6, Q3I5F7], the pKd result in the assay with PCLO, Q9Y6V0 (setting [3]) was “below the threshold”; with MPDZ_12, O75970 (setting [3]) it was “below the threshold”; with TJP1_3, Q07157 (setting [3]) it was “below the threshold”.
As to DEDQHTQITKV [PTEN, P60484], the pKd result is “below the threshold” with PDZD8, Q8NEN9; “below the threshold” with APBA3_2, O96018; “below the threshold” in the assay with MAGI2_1, Q86UL8; 3.81 with PTPN13_2, Q12923; “below the threshold” with MAGI3_6, Q5TCQ9; 3.59 with MAST3, O60307. Also, the negative-log Kd (pKd) entry is listed as “below the threshold” with MPDZ_2, O75970; “below the threshold” in the assay with DVL1, O14640; “below the threshold” with PARD3_1, Q8TEW0; “below the threshold” with SDCBP_1, O00560; “below the threshold” with PCLO, Q9Y6V0 (setting [1]); “below the threshold” in the assay with MAGI3_3, Q5TCQ9. In addition, the pKd entry with MPDZ_12, O75970 (setting [1]) is “below the threshold”; with TJP1_3, Q07157 (setting [1]), “below the threshold”; in the assay with MPP5, Q8N3R9, “below the threshold”; in the assay with SHROOM2, Q13796, “below the threshold”; with Inadl_7, Q8NI35, 3.65; in the assay with MAGI3_5, Q5TCQ9, “below the threshold”. Further, the pKd entry with PDZD4, Q76G19 is on record as “below the threshold”; in the assay with NHERF4_3, Q86UT5, “below the threshold”; with PTPN4, P29074, “below the threshold”.
In the case of QFQYAKESYI [TAGAP, Q8N103], the pKd result with PCLO, Q9Y6V0 (setting [1]) is “below the threshold”; with MPDZ_12, O75970 (setting [1]) it was “below the threshold”; with TJP1_3, Q07157 (setting [1]), “below the threshold”.
Consider TIVSWPGTFL [LNX1, Q8TBB1], for which the pKd result was “below the threshold” with PCLO, Q9Y6V0 (setting [2]); 3.54 with MPDZ_12, O75970 (setting [2]); “below the threshold” with TJP1_3, Q07157 (setting [2]).
As to NQLAWFDTDL [CTNNB1, P35222], the pKd entry with PCLO, Q9Y6V0 (setting [1]) was “below the threshold”; with MPDZ_12, O75970 (setting [1]) it was “below the threshold”; in the assay with TJP1_3, Q07157 (setting [1]), “below the threshold”.

For the origin of these results see article PMC9482650, “Quantitative fragmentomics allow affinity mapping of interactomes” (Nature Communications, 2022).
